Experimental data: patent publication US20240148841

Target: human IgG (of human serum; IgG against AAV8 in AAV8 positive human serum pools CP16 and P1)

B1: IdeSORK (Xork) IgG protease (protein)
chain: LSKRKLLKKIEKKDTSSVLTQKKQTKTLWADGVQVDDKDFKPSTENFGTNYLAAEYGIGKGYYDINKKFDGTDDDLCSGVVAANQLHWWLDRNKDYIEKYRQQSKDNGVTIGNTDIFELNKLHDEDQSNFFDFIKKSFGNKFLQPERLLNMYINGYGYLTSQDKAKTSQPSPSKLNFFQKVFKNNLLTDKTPINDIDEFSSQTKNALQNHKVLAVSFASIKNRGLGHVVTVWGADFDENGKVVALYVTDSDDRSKNIGNAKLGMKKLRIEVSAQDSSTIKLTGFEDKNSGGSLRHLYSLSTGEQIWKKYFEETEKERIRLEEEADKAKLEQDRIQKEAEEKLALEKAEKERIRLEEEADKAKLEQDRIQKEAEEKLALEKAEKERIRLEEEADKAKLEQDRIQKEAEEKLALEKAEKERIRLEEEADKAKLEQDRIQKEAEEKLALEKAEKERIRLEEEAAKAKLEQEKQIATAPQPDKKQENTTSEQEKPAPTELPPLVNKADETETPRETAPDQTPSATNTFRKILPKMNAVSQFFSQLMGTIQIVFAFILKIFK
B1 was tested, and the “cleavage of human IgG in vitro” value was “Xork cleaves human IgG in vitro with the same specificity and mechanism as IdeS”.
